Data as given in US20240033291A1 (CELLENGENE, published 2024).

Biological target: human mesothelin protein (MSLN antigen, Acro Biosystems) (human, UniProt Q13421 37-622)
Assay: ELISA, coated human mesothelin 1 ug/mL, purified scFv serially diluted, anti-StrepMAB HRP

human mesothelin protein (MSLN antigen, Acro Biosystems), sequence (Q13421 37-630): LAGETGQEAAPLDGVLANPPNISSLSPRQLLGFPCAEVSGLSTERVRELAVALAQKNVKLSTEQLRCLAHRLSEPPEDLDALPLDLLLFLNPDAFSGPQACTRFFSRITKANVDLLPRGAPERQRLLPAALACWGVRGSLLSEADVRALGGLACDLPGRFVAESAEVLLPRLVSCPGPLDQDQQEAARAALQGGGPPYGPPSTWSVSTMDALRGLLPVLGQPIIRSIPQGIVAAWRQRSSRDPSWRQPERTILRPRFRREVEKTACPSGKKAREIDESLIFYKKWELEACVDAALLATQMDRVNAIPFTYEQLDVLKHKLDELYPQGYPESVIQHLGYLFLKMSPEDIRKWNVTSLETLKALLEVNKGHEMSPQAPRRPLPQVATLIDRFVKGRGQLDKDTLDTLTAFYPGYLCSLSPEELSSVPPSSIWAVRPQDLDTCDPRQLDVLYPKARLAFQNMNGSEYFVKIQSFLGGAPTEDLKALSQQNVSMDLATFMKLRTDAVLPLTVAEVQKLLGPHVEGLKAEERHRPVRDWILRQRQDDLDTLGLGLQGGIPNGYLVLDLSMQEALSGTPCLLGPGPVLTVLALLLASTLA

EC50: 145 nM
B1: anti-MSLN-scFv antibody MSLN3 (purified scFv) (scFv)
chain: EVQLVESGGGLVQPGGSLRLSCAASGFTFSDYAMSWVRQAPGKGLEWVSAISSSGGTTYYADSVKGRFTISRDNSKNTLYLQMNSLRAEDTAVYYCAKEEEGEWREYFDVWGQGTLVTVSSGGGGSGGGGSGGGGSDIQMTQSPSSLSASVGDRVTITCRASQSISSYLNWYQQKPGKAPKLLIYATSTLQSGVPSRFSGSGSGTDFTLTISSLQPEDFATYYCQQSYTFPYTFGQGTKVEIKAST
